Entries after “also recorded” stand apart in the source; their conditions may differ.
B1: MsgRNA: Example 1 modified sgRNA, guide G2, R2 in tetra-loop and R5 in stem loop 2, SEQ ID NO: 15; used with dCas9 (nucleic acid)
guide: GCACUCAAACACGCCUUUGCGUUUUAGAGCUACCCGGGACGCGGGUCCGGGACAGUAGCAAGUUAAAAUAAGGCUAGUCCGUUAUCAACUUCUGAGGCCUUGGCGAGGCUUCUAAGUGGCACCGAGUCGGUGCUUUUUU
modifications: MsgRNA
notes: used with dCas9
B2: MsgDiR6: R2-R5 modified sgRNA scaffold (CRISPR-DiR), SEQ ID NO: 53; tested with guide G2 (nucleic acid)
guide: NNNNNNNNNNNNNNNNNNNGUUUGAGAGCUACCCGGGACGCGGGUCCGGGACAGUAGCAAGUUCAAAUAAGGCUAGUCCGUUAUCAACUUCUGAGGCCUUGGCGAGGCUUCUAAGUGGCACCGAGUCGGUGCUUUUUU
modifications: MsgDiR6 R2-R5 Sequence; (1)..(19) n is a, c, g, or u
notes: tested with guide G2
B3: MsgDiR7: R2-R2 modified sgRNA, SEQ ID NO: 54 (nucleic acid)
guide: NNNNNNNNNNNNNNNNNNNGUUUGAGAGCUACCCGGGACGCGGGUCCGGGACAGUAGCAAGUUCAAAUAAGGCUAGUCCGUUAUCAACUUCCCGGGACGCGGGUCCGGGACAGAAGUGGCACCGAGUCGGUGCUUUUUU
modifications: MsgDiR7 R2-R2 Sequence; (1)..(19) n is a, c, g, or u

Legend:
P16 promoter = assay: p16 methylation (MSP/COBRA) after transient transfection; type: cell-based, human; conditions: SNU-398, transient co-transfection with dCas9, guide G2, 72 hours
Source text: (§1) In this example, a modified CRISPR/dCAS9 system for gene activation and demethylation was developed and tested with P16. The DiR localized in CEBPA locus (ecCEBPA) is repurposed to other specific gene target(s) for demethylation and reactivation. The RNA stem-loops (R2 and R5), interacting with DNMT1(1), were fused to the tetra- and stem-loop 2 in a single guide RNA (sgRNA) scaffold to obtain a modified sgRNA (MsgRNA, sgDiR in FIG. 1, also referred to as MsgDiR6 in Example 3 below). The hepatocellular carcinoma (HCC) cell line SNU-398, in which P16 is silenced by promoter methylation, was transiently transfected with dCas9 plasmid and one MsgRNA (using guide G2: […] (SEQ ID NO: 29), MsgRNA with guide G2 is shown as G2sgDiR in FIG. 1, as targeting portion) targeting the template strand of P16 promoter.
(§2) SNU-398 cells were seeded at a density of […] in 6-well plates 24 hours before transfection employing jetPRIME transfection reagent (Polyplus Transfection) as described by the manufacturer. 2 μg mix of sgRNA/MsgDiR and dCas9 plasmid(s) (sgRNA/MsgDiR: dCas9 molar ratio 1:1) were transfected into each well of cells. The culture medium was changed 12 hours after transfection. Alternatively, the Neon™ Transfection System (Thermo Fisher) was used for cell electroporation according to the manufacturer's instructions. The same plasmid amount and ratios were used in the Neon as in the jetPRIME transfection. The parameters used for the highest SNU-398 transfection efficiency were 0.7 to 1.5 million cells in 100 μl reagent, voltage 1550 V, width 35 ms and 1 pulse. The culture medium was changed 24 hours after transfection.
The methylation profiles of the p16 gene locus or the whole genome were assessed by bisulfite-conversion based assays. For DNA bisulfite conversion, 1.6-1.8 μg of genomic DNA of each sample was converted by the EpiTect Bisulfite Kit (Qiagen) following the manufacturer's instructions.
For Methylation-Specific PCR (MSP), both methylation specific primers and unmethylation specific primers of p16 were used for the PCR of the same bisulfite converted sample (the transient transfection samples in the sgRNA and MsgDiR1-8 screening assay). […] 7 min, 4° C. hold. […] 7 min, 4° C. hold. […] 7 min, 4° C. hold.

P16 = assay: p16 mRNA qRT-PCR after transient transfection of sgRNA/MsgDiR with or without dCas9; type: cell-based, human; conditions: SNU-398, 72 hours; for P16 mRNA expression (qRT-PCR): transient co-transfection with dCas9, guide G2
Source text: as §1
This study transiently transfected dCas9 plasmid together with one MsgRNA plasmid (G2sgDiR) to SNU398 cells, culturing three days without selection for the positively transfected cells. Guide G2 targets one site in the template strand (also known as antisense strand) of P16 promoter; and was initially chosen for two reasons: 1) the sequence is one of the three guides used in a P16 gene study (3), and 2) G2 targets the P16 promoter region, the methylation and demethylation of which has been considered as an important factor for gene regulation.
All measurements were performed in triplicate.
as §2

Row | Molecule | P16 DNA methylation / demethylation (P16 promoter) | P16 DNA methylation / demethylation (P16 promoter; listed as CRISPR-R2R5 system) | P16 mRNA expression (qRT-PCR) (P16) | P16 mRNA expression (qRT-PCR) (P16; listed as CRISPR-R2R5 system) | P16 mRNA expression (qRT-PCR) (P16; listed as sgDiR (G2)) | p16 activation in absence of dCas9 (P16; transient transfection without dCas9)
1 | B1 | loss of DNA methylation | demethylation | two-fold increase | moderate gene activation | – | –
2 | B2 | induces P16 demethylation | – | moderate activation of p16; also recorded: moderate gene activation | – | moderate activation | no effects
3 | B3 | not effective | – | – | – | – | –
